Laboratory results: patent publication US20050171017A1

Experiments:
[1] = target: thyroid-stimulating hormone (TSH) receptor (human) (UniProt P16473); experiment: cell-based or functional assay
[2] = target: thyroid-stimulating hormone (TSH) receptor (human) (UniProt P16473); experiment: flow cytometry, 10 ug/ml TSH-biotin + SA-PE on human PBMC donor 1, lymphoid gate; SA-PE alone 2.50, unstained 2.13; no * (no credible shift)
[3] = target: thyroid-stimulating hormone (TSH) receptor (human) (UniProt P16473); experiment: flow cytometry, 10 ug/ml TSH-biotin + SA-PE on human PBMC donor 2, lymphoid gate; SA-PE alone 3.92, unstained 3.19; no * (no credible shift)
[4] = target: thyroid-stimulating hormone (TSH) receptor (human) (UniProt P16473); experiment: flow cytometry, 10 ug/ml TSH-biotin + SA-PE on human PBMC donor 1, myeloid gate; SA-PE alone 4.44, unstained 3.43; * = credible positive shift
[5] = target: thyroid-stimulating hormone (TSH) receptor (human) (UniProt P16473); experiment: flow cytometry, 10 ug/ml TSH-biotin + SA-PE on human PBMC donor 2, myeloid gate; SA-PE alone 5.92, unstained 4.33; * = credible positive shift
[6] = target: thyroid-stimulating hormone (TSH) receptor (human) (UniProt P16473); experiment: flow cytometry, 10 ug/ml TSH-biotin + SA-PE on U937 human monocyte line, all live cells; SA-PE alone 4.88, unstained 4.49; * = credible positive shift

thyroid-stimulating hormone (TSH) receptor (human), sequence (P16473 21-764): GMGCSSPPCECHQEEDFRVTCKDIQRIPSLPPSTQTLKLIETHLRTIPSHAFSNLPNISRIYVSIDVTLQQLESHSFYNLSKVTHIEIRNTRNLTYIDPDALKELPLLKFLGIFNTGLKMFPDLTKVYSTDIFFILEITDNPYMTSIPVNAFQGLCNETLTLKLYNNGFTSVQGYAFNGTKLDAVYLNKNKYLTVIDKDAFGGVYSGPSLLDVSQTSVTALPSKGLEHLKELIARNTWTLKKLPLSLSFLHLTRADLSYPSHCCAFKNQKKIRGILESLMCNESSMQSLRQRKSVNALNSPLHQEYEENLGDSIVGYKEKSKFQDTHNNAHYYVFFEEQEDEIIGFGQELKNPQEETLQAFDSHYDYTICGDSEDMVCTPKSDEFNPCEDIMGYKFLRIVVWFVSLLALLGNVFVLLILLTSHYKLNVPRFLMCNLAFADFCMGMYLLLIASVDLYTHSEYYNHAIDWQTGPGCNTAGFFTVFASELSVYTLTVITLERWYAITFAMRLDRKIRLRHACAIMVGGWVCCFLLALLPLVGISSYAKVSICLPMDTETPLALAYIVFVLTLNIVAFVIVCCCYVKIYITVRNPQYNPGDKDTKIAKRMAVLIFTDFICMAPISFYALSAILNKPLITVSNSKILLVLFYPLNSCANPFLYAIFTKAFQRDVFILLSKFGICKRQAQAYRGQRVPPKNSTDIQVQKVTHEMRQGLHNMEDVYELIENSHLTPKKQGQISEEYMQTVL

luciferase induction (CRE-luciferase reporter, NCI-H295R human adrenal cortex cells) [1] [fold] | FL-2 MFI [2] [MFI] | FL-2 MFI [3] [MFI] | FL-2 MFI [4] [MFI] | FL-2 MFI [5] [MFI] | FL-2 MFI [6] [MFI] | Substance
15 to 25 |  |  |  |  |  | Thyroid stimulating hormone (TSH), purified TSH heterodimer protein (from UniProt P01215 25-116; P01222 21-132) (ligand)
 | 2.63 | 4.23 | 7.78 | 7.26 | 6.34 | TSH-biotin (from UniProt P01215 25-116; P01222 21-132) (ligand)
